Test results published in patent US20130323786A1.

Tests used:
[1] = target: human Fc receptor CD16-GST fusion protein (human) (UniProt P08637); experiment: ALPHA competition assay: test antibody competes with biotinylated wild-type IgG1 (m7) for the receptor-GST fusion; panel title huCD16a V
[2] = target: human Fc receptor CD64-GST fusion protein (human) (UniProt P12314); experiment: ALPHA competition assay: test antibody competes with biotinylated wild-type IgG1 (m7) for the receptor-GST fusion; panel title huCD64 [continued) D]
Chain of human Fc receptor CD64-GST fusion protein (human) (P12314 16-292 limits assumed): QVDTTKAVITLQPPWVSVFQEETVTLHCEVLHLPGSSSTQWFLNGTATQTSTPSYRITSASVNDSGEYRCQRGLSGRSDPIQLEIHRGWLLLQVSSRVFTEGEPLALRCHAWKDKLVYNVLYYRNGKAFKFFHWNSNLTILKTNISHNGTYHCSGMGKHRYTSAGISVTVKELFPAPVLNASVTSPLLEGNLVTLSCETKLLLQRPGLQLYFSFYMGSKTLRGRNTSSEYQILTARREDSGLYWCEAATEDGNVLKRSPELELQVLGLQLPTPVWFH

[3] = target: LINGO-1 (human) (UniProt Q96FE5); experiment: Cell bridging assay; fit of an essentially flat control curve (see non_binding); the axis on the sheet has no unit, µg/mL is from paragraph 391

Chain of human Fc receptor CD16-GST fusion protein (human) (P08637 17-208): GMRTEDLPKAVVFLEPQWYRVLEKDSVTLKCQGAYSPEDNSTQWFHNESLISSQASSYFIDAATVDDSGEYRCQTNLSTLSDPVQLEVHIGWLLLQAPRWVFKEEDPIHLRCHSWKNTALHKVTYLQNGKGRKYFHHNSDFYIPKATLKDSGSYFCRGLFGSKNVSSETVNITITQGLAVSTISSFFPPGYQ

IC50 [1] | IC50 [2] | C (midpoint parameter of the printed 4-parameter fit) [3] | Substance
62 µg/mL | 25 µg/mL | – | agly 5c8 T299A (JF) (antibody)
– | – | 3.55 µg/mL | huIgG1 (antibody)
